Experiments:
[1] = target: ovalbumin (UniProt P01012)
[2] = test system: β-amyloid peptide (1-42)
[3] = test system: recombinant serum albumin
[4] = target: T1, β-casein (UniProt P02666)
T1 sequence: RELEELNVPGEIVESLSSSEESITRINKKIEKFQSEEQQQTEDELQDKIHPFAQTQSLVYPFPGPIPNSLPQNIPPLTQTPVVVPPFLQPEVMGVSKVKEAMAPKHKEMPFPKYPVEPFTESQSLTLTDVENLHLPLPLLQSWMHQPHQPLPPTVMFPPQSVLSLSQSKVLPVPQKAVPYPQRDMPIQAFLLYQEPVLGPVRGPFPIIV

[5] = test system: myelin basic protein (MBP)
[6] = test system: histone H3 protein
[7] = target: bovine serum albumin (BSA) (UniProt P02769)
bovine serum albumin (BSA), sequence (P02769 25-607): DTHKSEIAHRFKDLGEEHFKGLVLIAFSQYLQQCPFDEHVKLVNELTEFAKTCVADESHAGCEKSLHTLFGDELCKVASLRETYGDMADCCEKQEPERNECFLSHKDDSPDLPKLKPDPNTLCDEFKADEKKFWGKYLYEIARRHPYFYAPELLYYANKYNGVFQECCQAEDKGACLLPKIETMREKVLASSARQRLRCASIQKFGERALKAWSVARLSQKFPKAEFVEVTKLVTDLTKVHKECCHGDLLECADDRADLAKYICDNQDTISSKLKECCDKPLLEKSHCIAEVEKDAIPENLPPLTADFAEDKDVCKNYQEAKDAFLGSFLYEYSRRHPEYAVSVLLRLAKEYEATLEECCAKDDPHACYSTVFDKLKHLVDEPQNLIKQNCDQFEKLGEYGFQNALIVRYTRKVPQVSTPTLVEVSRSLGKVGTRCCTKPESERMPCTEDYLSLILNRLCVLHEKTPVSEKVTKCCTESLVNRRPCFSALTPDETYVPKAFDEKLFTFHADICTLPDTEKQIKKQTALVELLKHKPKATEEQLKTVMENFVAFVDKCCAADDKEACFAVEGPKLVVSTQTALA

[8] = test system: BSA5 peptide

ovalbumin, sequence (P01012 2-386): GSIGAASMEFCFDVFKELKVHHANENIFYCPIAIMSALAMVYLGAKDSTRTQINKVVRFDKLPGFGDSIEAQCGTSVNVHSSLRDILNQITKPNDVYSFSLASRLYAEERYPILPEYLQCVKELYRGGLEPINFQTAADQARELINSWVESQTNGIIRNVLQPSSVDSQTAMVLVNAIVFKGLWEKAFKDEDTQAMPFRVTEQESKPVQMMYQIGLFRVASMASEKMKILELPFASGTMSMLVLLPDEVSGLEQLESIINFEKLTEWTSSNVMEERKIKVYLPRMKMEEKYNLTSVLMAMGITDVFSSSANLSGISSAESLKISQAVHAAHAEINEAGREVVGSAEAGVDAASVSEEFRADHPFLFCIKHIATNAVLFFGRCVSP

recombinant 6×-His-TGase fusion protein of Streptomyces mobaraensis ATCC 29032
cross-linking of native protein [1]: there was no cross-linking | cross-linking of β-amyloid (1-42) peptide on SDS-PAGE, 1 to 3 hours [2]: can be cross-linked by the recombinant transglutaminase as shown as a smear of a mixture of cross-linked peptides | cross-linking of recombinant serum albumin on SDS-PAGE [3]: revealed a mixture of very high molecular weight polymers of different length | cross-linking of a mixture of β-casein and glucose oxidase on SDS-PAGE [4]: both protein species can be cross-linked by the purified recombinant SM TGase | cross-linking of β-casein on SDS-PAGE [4]: the cross-linked (CL) β-casein migrated as a smear on the SDS-PAGE gel indicating a mixture of high molecular weight polymers of different length | cross-linking of β-casein on SDS-PAGE, 0 mM DTT [4]: had no cross-linking activity on β-casein | cross-linking of β-casein on SDS-PAGE, about 2 mM DTT [4]: β-casein run as a mixture of cross-linked polymer and monomer | cross-linking of β-casein on SDS-PAGE, about 10 mM DTT [4]: cross-linking of all detectable β-casein substrates in the reaction | cross-linking of native protein [5]: there was no cross-linking | cross-linking of native protein [6]: there was no cross-linking | cross-linking of native protein on SDS-PAGE [6]: complete and partial cross-linking was both observed for native histine H3 protein under the condition tested | cross-linking of native protein [7]: there was no cross-linking | cross-linking of BSA5 peptide on SDS-PAGE [8]: increased amount of recombinant SM TGase corresponding to an increase in cross-linked (CL) BSA5 peptide

— patent publication US20040001848
